Results: patent US20230390418A1, “[…] XII ANTIBODIES AND ADMINISTRATION THEREOF” (REGENXBIO INC., priority 2020, published 2023)

What was measured:
[1] = system: carrageenan-induced paw edema; test: Carrageenan paw edema model in mice (paw volume, plethysmometer); assay type: in vivo; conditions: C57BL/6 mice, vectors 21 days, Diclofenac 30 minutes prior to carrageenan
From the text: Inflammation models induced by carrageenan are frequently used acute inflammation models. Carrageenan (Cg) is a strong chemical agent that functions in stimulating the release of inflammatory and proinflammatory mediators, including bradykinin, histamine, tachykinins, reactive oxygen, and nitrogen species. Typical signs of inflammation include edema, hyperalgesia, and erythema, which develop immediately following the treatment of carrageenan. This example evaluated the effect of AAV-mediated gene delivery of Lanadelumab on carrageenan-induced paw edema in mice.
In total eighty young adult (8-9 weeks old) male C57BL/6 mice were used for this study. Paw edema was induced by a single subcutaneous (s.c.) injection of 30 μL of 0.7% or 1% carrageenan solution. Test vectors and positive control Diclofenac were administered at 21 days and 30 minutes prior to carrageenan treatment. Blood was collected before vectors injection and at 7 and 21 days post injection from mice in groups 1, 3, 4, 5, 7 and 8. Paw volume was measured using a digital Plethysmometer prior to carrageenan injection, and at 2, 4, 6, 8, 24 and 48 hours after injection. All animals were sacrificed 48 hours after carrageenan injection. Liver and paw specimens were also collected at the necropsy.

[2] = molecular target: activated human plasma kallikrein (Enzyme Research Laboratories) (human) (UniProt P03952); test: cell-based or functional assay
[3] = molecular target: T1, activated human plasma kallikrein (Homo sapiens, UniProt P03952); test: In vitro pKal functional assay (fluorogenic PFR-AMC substrate); assay type: biochemical
T1 construct: purchased Enzyme Research Laboratories
Description: In order to measure pKal function of lanadelumab derived from mouse serum following AAV-lanadelumab administration, a fluorescence-based kinetic enzymatic functional assay was performed. First, activated human plasma kallikrein (Enzyme Research Laboratories) was diluted in sample dilution buffer (SDB; 1×PBS, 3% BSA, 0.1% Tween-20) to top concentration of 100 nM. This pKal was two-fold serially diluted for a total of 12 concentrations in the dilution series (100 nM-0.05 nM). From each dilution, and in duplicate, […], was placed in one well of a 96-well, opaque flat-bottomed plate along with […], of SDB. […] The samples were immediately run in kinetic mode for AMC fluorescence at excitation/emission wavelengths of 380/460 nm, respectively, for 3 hours using a SpectraMax 3 fluorescent plate reader.
The signal-to-noise ratio for each pKal concentration RFU (last RFU fluorescent value chosen) was calculated by dividing its RFU by background PFR-AMC substrate fluorescence. […] Antibody-pKal mixture was then given PFR-AMC and immediately run in kinetic mode for AMC fluorescence at excitation/emission wavelengths of 380/460 nm, respectively, for 3 hours using a SpectraMax fluorescent plate reader.
In vitro pKal functional assay. […] Total antibody concentration was measured using a Nanodrop spectrophotometer, with OD absorbance=280 nm. […]

T1 sequence (P03952 391-638 limits assumed): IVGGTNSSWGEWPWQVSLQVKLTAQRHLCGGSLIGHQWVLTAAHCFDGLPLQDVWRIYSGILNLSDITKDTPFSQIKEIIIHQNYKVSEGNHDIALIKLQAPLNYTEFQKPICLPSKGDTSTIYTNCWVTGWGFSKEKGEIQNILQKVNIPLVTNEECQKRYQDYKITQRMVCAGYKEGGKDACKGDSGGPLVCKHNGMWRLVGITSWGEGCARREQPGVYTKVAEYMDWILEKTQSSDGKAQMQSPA
T1 sequence (P03952 20-390 limits assumed): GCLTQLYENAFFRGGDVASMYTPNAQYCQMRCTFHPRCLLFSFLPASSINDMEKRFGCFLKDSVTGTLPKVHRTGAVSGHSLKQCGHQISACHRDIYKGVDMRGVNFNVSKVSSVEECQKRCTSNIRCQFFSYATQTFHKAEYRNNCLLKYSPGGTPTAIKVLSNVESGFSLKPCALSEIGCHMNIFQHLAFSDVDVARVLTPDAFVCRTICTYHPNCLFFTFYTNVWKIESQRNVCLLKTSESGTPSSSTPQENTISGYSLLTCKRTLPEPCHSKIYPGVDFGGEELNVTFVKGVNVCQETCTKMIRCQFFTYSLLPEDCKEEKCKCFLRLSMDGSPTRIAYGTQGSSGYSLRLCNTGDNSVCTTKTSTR

O=C(O)Cc1ccccc1Nc1c(Cl)cccc1Cl [diclofenac, Diclofenac]
Paw volume versus vehicle control ([1]; 0.7% carrageenan model): a significant decrease on paw volume was observed only at 4 and 24 hours post injection
Paw volume versus vehicle control ([1]; 1.0% carrageenan model): significantly decreased the paw volume at 2, 4, 6, 8 and 24 hours post carrageenan injection

Lanadelumab (GenScript) (antibody)
suppression of pKal activity (PFR-AMC fluorogenic substrate, kinetic AMC fluorescence) [2]: 0.1 nM

Vectorized lanadelumab derived from mouse serum following AAV-lanadelumab administration (antibody)
percent reduction in pKal activity (serum diluted 1:25, day 49 post-administration against day -7; PFR-AMC assay) [2]: 50%

B1: lanadelumab: human anti-pKal (anti-kallikrein) IgG antibody; purified (GenScript) or produced in serum via AAV-mediated gene delivery (antibody)
heavy: EVQLLESGGGLVQPGGSLRLSCAASGFTFSHYIMMWVRQAPGKGLEWVSGIYSSGGITVYADSVKGRFTISRDNSKNTLYLQMNSLRAEDTAVYYCAYRRIGVPRRDEFDIWGQGTMVTVSSASTKGPSVFPLAPSSKSTSGGTAALGCLVKDYFPEPVTVSWNSGALTSGVHTFPAVLQSSGLYSLSSVVTVPSSSLGTQTYICNVNHKPSNTKVDKRVEPKSCDKTHTCPPCPAPELLGGPSVFL
light: DIQMTQSPSTLSASVGDRVTITCRASQSISSWLAWYQQKPGKAPKLLIYKASTLESGVPSRFSGSGSGTEFTLTISSLQPDDFATYYCQQYNTYWTFGQGTKVEIKRTVAAPSVFIFPPSDEQLKSGTASVVCLLNNFYPREAKVQWKVDNALQSGNSQESVTEQDSKDSTYSLSSTLTLSKADYEKHKVYACEVTHQGLSSPVTKSFNRGEC
modifications: Lanadelumab Heavy; misc (227)..(230) amino acids 227 to 230 are present or absent; misc (231)..(236) amino acids 231 to 236 are present or absent; misc (237)..(247) amino acids 237 to 247 are present or absent; Lanadelumab Light
notes: human anti-pKal (anti-kallikrein) IgG antibody; purified (GenScript) or produced in serum via AAV-mediated gene delivery
Paw volume versus vehicle control ([1]; 1.0% carrageenan model): significantly reduces the severity of inflammation
Suppression of human pKal function by purified total IgG from mouse serum ([3]; IgG purified from day 49 post-administration serum versus day −7): suppressed human pKal function
Lowest in-well concentration with noticeable suppression of pKal activity ([3]; purified antibody, defined enzyme concentration): 0.1 nM
